Settings: Bos taurus; pH 5.3; 5 °C; GdnHCl; Fluorescence; Sodium acetate 0.02 M; whole UniProt chain shown

B1: Acyl-CoA-binding protein wild type, P07107 (protein)
chain: MSQAEFDKAAEEVKHLKTKPADEEMLFIYSHYKQATVGDINTERPGMLDFKGKAKWDAWNELKGTSKEDAMKAYIDKVEELKKKYGI
**Q.** Which denaturant m value does the source give for B1 here?
**A.** 3.53 kcal/mol/M

**Q.** What about the unfolding free energy of the same protein?
**A.** 8.08 kcal/mol

From FireProtDB (doi:10.1038/9384)
